In patent US8945359B2, “Flavin-binding glucose dehydrogenase” (Ikeda Food Research Co., Ltd., priority 2011, dated 2015):
Read-outs that look alike come from different tables or passages of the source.

Key:
[1] = tested on: Dumontinia tuberosa NBRC30254 flavin-binding glucose dehydrogenase DuGLD (A), purified, wild type, SEQ ID NO: 2 (without signal sequence SEQ ID NO: 10); test: Inhibitive effect of 1,10-phenanthroline, DuGLD; type: biochemical; details: methanol only = 0%
Procedure: (§1) The enzymatic activity of each of the purified GLDs (A) to (F) was measured when 1,10-phenanethroline dissolved in methanol was added such that its final concentration was 2 mM, 5 mM or 10 mM in the above method for measuring enzymatic activity. The inhibitive effect obtained when only methanol was added was defined as 0% to find the inhibitive effect of 1,10-phenanthroline at each concentration. The obtained results are shown collectively as the inhibitive effect of 1,10-phenanthroline in Table 4.

[2] = target: T1, Botrytis tulipae NBRC5896 flavin-binding glucose dehydrogenase BotGLD (E), purified from A. oryzae NS4 with BotGLD-Atsig modified gene, SEQ ID NO: 4 (without signal sequence SEQ ID NO: 12) (Botrytis tulipae, UniProt A0A4Z1FFJ6); test: Inhibitive effect of 1,10-phenanthroline, BotGLD; type: biochemical
T1 construct: up to three extra N-terminal residues possible
Procedure: as §1

[3] = tested on: Ovulinia azaleae NBRC6610 flavin-binding glucose dehydrogenase OvGLD (B), purified, wild type, SEQ ID NO: 6 (without signal sequence SEQ ID NO: 14); test: Inhibitive effect of 1,10-phenanthroline, OvGLD; type: biochemical; details: methanol only = 0%
Procedure: as §1

[4] = tested on: Botrytis fabae NBRC7171 flavin-binding glucose dehydrogenase BoGLD (D), purified, wild type; test: Inhibitive effect of 1,10-phenanthroline, BoGLD; type: biochemical; details: methanol only = 0%
Procedure: as §1

[5] = tested on: Sclerotinia sclerotiorum NBRC103652 flavin-binding glucose dehydrogenase ScGLD (C), purified, wild type; test: Inhibitive effect of 1,10-phenanthroline, ScGLD; type: biochemical; details: methanol only = 0%
Procedure: After the column was washed with the buffer solution C2, a protein was eluted with linear gradient of a buffer solution D3 (500 mM potassium phosphate buffer solution, pH 7.0) in the buffer solution C2.
as §1

[6] = tested on: Ciborinia camelliae NBRC103663 flavin-binding glucose dehydrogenase CiGLD (F), purified from A. oryzae NS4 with CiGLD-Atsig modified gene, SEQ ID NO: …; test: Inhibitive effect of 1,10-phenanthroline, CiGLD; type: biochemical; details: methanol only = 0%
Procedure: as §1

[7] = tested on: OC[C@H]1OC(O)[C@H](O)[C@@H](O)[C@@H]1O; test: purified protein, by the assay type; details: other: BotGLD, D-glucose varied, Hanes-Woolf plot, DCIP/1-m-PMS, pH 6.0, 37° C.
Procedure: Each solution was mixed according to the following procedures to measure the absorbance, thereby examining GLD activity.
Then, 0.05 mL of an enzyme sample was added to the mixture to start a reaction. The amount (ΔA600) of reduction in light absorbance per minute at 600 nm along with the progress of the enzymatic reaction was measured for 5 minutes from the start of the reaction to calculate GLD activity from the straight line part according to the equation 1. At this time, in the measurement of GLD activity, the amount of an enzyme reducing 1 μmol of DCIP at 37° C. and a pH of 6.0 for one minute was defined as 1 U.
In the above formula, 3.0 represents the amount (mL) of reaction reagent+oxygen solution, 10.8 represents the molar absorption coefficient (mM^−1 cm^−1) of DCIP at a pH of 6.0, 1.0 represents the optical path length (cm) of a cell, 0.05 represents the amount (mL) of the oxygen solution, ΔA600 blank represents a reduction in the amount of light absorbance per minute at 600 nm when the solution used to dilute the enzyme is added in place of the enzyme solution to start a reaction, and df represents a dilution ratio.

[8] = Substrate specificity; type: biochemical; details: 333 mM
Source text: As these substrates, maltose, D-galactose, D-fructose, sorbitol, lactose, sucrose, D-xylose, D-mannose and trehalose were used. When the activity to D-glucose was defined as 100%, the relative activity to each substrate was found. These relative activities are described collectively as the substrate specificity in Table 2.

[9] = Temperature characteristics; type: biochemical
Procedure: The relative activity at each temperature was calculated when the activities at 30 and 45° C. were each defined as 100%. In this case, each sample was measured twice in the same condition. An average of the measured relative activities is collectively described in Table 3.

[10] = substrate D-fructose, D-glucose = 100%
[11] = substrate D-galactose, D-glucose = 100%
[12] = substrate D-glucose (defined as 100%)
[13] = substrate D-mannose, D-glucose = 100%
[14] = substrate D-xylose, D-glucose = 100%
[15] = substrate lactose, D-glucose = 100%
[16] = substrate maltose, D-glucose = 100%
[17] = substrate sorbitol, D-glucose = 100%
[18] = substrate sucrose, D-glucose = 100%
[19] = substrate trehalose, D-glucose = 100%

c1cnc2c(c1)ccc1cccnc12 [1,10-phenanthroline]
Inhibitive effect ([1]; final concentration 2 mM): 20.4% | Inhibitive effect ([1]; final concentration 5 mM): 30.1% | Inhibitive effect ([1]; final concentration 10 mM): 42.3% | inhibition at 2000 µM ([2]; BotGLD, final concentration 2 mM, methanol only = 0%, read-out: Inhibitive effect): 33.5% | inhibition at 5000 µM ([2]; BotGLD, final concentration 5 mM, methanol only = 0%): 38.6% | inhibition at 10000 µM ([2]; BotGLD, final concentration 10 mM, methanol only = 0%): 75.4% | inhibition at 2000 µM ([2]; DuGLD, OvGLD and BotGLD together, 2 mM, read-out: Inhibitive effect (summary range)): 20 to 34% | Inhibitive effect ([3]; final concentration 2 mM): 34.1% | Inhibitive effect ([3]; final concentration 5 mM): 51.7% | Inhibitive effect ([3]; final concentration 10 mM): 65.1% | Inhibitive effect ([4]; final concentration 2 mM): 10.4% | Inhibitive effect ([4]; final concentration 5 mM): 15.9% | Inhibitive effect ([4]; final concentration 10 mM): 28.5% | Inhibitive effect ([5]; final concentration 2 mM): 5.28% | Inhibitive effect ([5]; final concentration 5 mM): 18.4% | Inhibitive effect ([5]; final concentration 10 mM): 32.3% | Inhibitive effect ([6]; final concentration 2 mM): 6.34% | Inhibitive effect ([6]; final concentration 5 mM): 14.7% | Inhibitive effect ([6]; final concentration 10 mM): 32.7%

Botrytis tulipae NBRC5896 flavin-binding glucose dehydrogenase BotGLD (E), purified from A. oryzae NS4 with BotGLD-Atsig modified gene, SEQ ID NO: 4 (without signal sequence SEQ ID NO: 12) (Botrytis tulipae)
Km [7]: 36.2 mM

B1: BotGLD: purified enzyme of GLD derived from Botrytis tulipae, produced in A. oryzae NS4 carrying the BotGLD-Atsig modified gene (protein, listed as Botrytis tulipae)
chain: MYRLLSTFALASLAAASTDSTLTYDYIVIGAGTSGLVIANRLSELNVTVAVIEAGDSGYNNPNVTNPSGYGLSFGTDIDWAYQSTNQKYAGNTSQVLRAGKIIGGTSTINGMAYTRAEDVQIDAWAAIGNDGWNWANLFPYYKKSQTLEIPTTAQVEAGAAYDASANGFDGPLKVGWLNSLEDTSNFHTTLNDTFAGLGVPSNDDVNTGRMVGYSRYPATYDRTLNVRHDAGRAYYYPIANRTNLHLYPNTMAQRLTWTSDANTPTANGVEVLSNNSSIPYTIHANSEVILSAGALASPLLLELSGIGNPSILSKHNISVVVDLPTVGENLQDQTNTGLAYNSSGNTSFSGAGTLVAYPSAAQLFGSEVQKISAHVLQSLPSYAAQVSAASGNITKAADLLKFFKIQHDLIFSTTHPVPMAEILISPSATAFSSEYWALLPFARGSIHITSSVAGTPAAINPNYFMFDWDVTSQIATAKFIRSIYAASPLSSFVGSETKPGLNKVSANATEAEWFDWVKTAYRSNFHPVSTAAMMPREIGGVVDSRLKVYGTANVRVVDASILPMQVSGHLVSTLYAVAERAADLIKEDI
modifications: CDS (1)..(1773); sig_peptide (1)..(57)
notes: purified enzyme of GLD derived from Botrytis tulipae, produced in A. oryzae NS4 carrying the BotGLD-Atsig modified gene
Relative activity [8, 10]: < 0.1% | Relative activity [8, 11]: 0.76% | Relative activity [8, 12]: 100% | Relative activity [8, 13]: 8.2% | Relative activity [8, 14]: 20% | Relative activity [8, 15]: < 0.1% | Relative activity [8, 16]: 1.5% | Relative activity [8, 17]: < 0.1% | Relative activity [8, 18]: < 0.1% | Relative activity [8, 19]: 10%

B2: DuGLD: purified enzyme of flavin-binding GLD derived from the genus Dumontinia (Dumontinia tuberosa NBRC30254) (protein, listed as Dumontinia tuberosa)
chain: MNHLLPAFALASLAVASPDLSLTYDYVIVGAGTSGLVIANRLSELNVTVAVIEAGDSGYNNVNVTNPAGYGLAFGTDIDWAYQSTNQKYAGNATQTLRAGKVIGGTSTINGMAYTRAEDVQIDAWAALGNDGWNWENLFPYYKKSQTLQAPTAAQAEAGATYDPSANGFDGPLKVGWLKSLANDDFHIILNDTYASLGIFANEDVNTGRMVGYNRYPVTYDETLNVRHDAGRAYYYPIANRTNLHLYPNTMAQRLTWKSGADVPTANGVEVLTNNSSIPYTISANSEVILSAGALASPLLLELSGIGNPSLLNKYNIPVVVDLPTVGENLQDQTNNGLAYTVSKDASFSGVGTLVTYPSAAQVFGSEIQNISAHVLDSLPSYAAQVSAASGNVTKAADLLEFFKIQHDLIFSTTHPVPMAEILVIPSATGFKSEYWALLPFARGNIHITSSIPGTPAAINPNYYMLDWDITSQITTAKFIRSVYATSPLSTLVGSETKPGLETLSANATEAEWSEWIKAGYRPNFHPVSTAAMMPREVGGVVDSRLKVYGTSNVRVVDASVLPMQVSGHLVSTLYAVAERAADLIKEDI
modifications: CDS (1)..(1770); sig_peptide (1)..(57)
Relative activity [8, 10]: < 0.1% | Relative activity [8, 11]: 0.28% | Relative activity [8, 12]: 100% | Relative activity [8, 13]: 1.7% | Relative activity [8, 14]: 10% | Relative activity [8, 15]: < 0.1% | Relative activity [8, 16]: 0.54% | Relative activity [8, 17]: < 0.1% | Relative activity [8, 18]: < 0.1% | Relative activity [8, 19]: 1.0% | Relative activity ([9]; 10° C., substrate 10 mM, 100% at 30° C.): 60.6% | Relative activity ([9]; 10° C., substrate 10 mM, 100% at 45° C.): 60.1% | Relative activity ([9]; 10° C., substrate 50 mM, 100% at 30° C.): 56.0% | Relative activity ([9]; 10° C., substrate 50 mM, 100% at 45° C.): 50.5% | Relative activity ([9]; 20° C., substrate 10 mM, 100% at 30° C.): 81.5% | Relative activity ([9]; 20° C., substrate 10 mM, 100% at 45° C.): 80.7% | Relative activity ([9]; 20° C., substrate 50 mM, 100% at 30° C.): 77.9% | Relative activity ([9]; 20° C., substrate 50 mM, 100% at 45° C.): 70.3% | Relative activity ([9]; 30° C., substrate 10 mM, 100% at 30° C.): 100% | Relative activity ([9]; 30° C., substrate 10 mM, 100% at 45° C.): 99.1% | Relative activity ([9]; 30° C., substrate 50 mM, 100% at 30° C.): 100% | Relative activity ([9]; 30° C., substrate 50 mM, 100% at 45° C.): 90.2% | Relative activity ([9]; 40° C., substrate 10 mM, 100% at 30° C.): 108% | Relative activity ([9]; 40° C., substrate 10 mM, 100% at 45° C.): 107% | Relative activity ([9]; 40° C., substrate 50 mM, 100% at 30° C.): 109% | Relative activity ([9]; 40° C., substrate 50 mM, 100% at 45° C.): 98.6% | Relative activity ([9]; 45° C., substrate 10 mM, 100% at 30° C.): 101% | Relative activity ([9]; 45° C., substrate 10 mM, 100% at 45° C.): 100% | Relative activity ([9]; 45° C., substrate 50 mM, 100% at 30° C.): 111% | Relative activity ([9]; 45° C., substrate 50 mM, 100% at 45° C.): 100% | Relative activity ([9]; 50° C., substrate 10 mM, 100% at 30° C.): 87.5% | Relative activity ([9]; 50° C., substrate 10 mM, 100% at 45° C.): 86.7% | Relative activity ([9]; 50° C., substrate 50 mM, 100% at 30° C.): 105% | Relative activity ([9]; 50° C., substrate 50 mM, 100% at 45° C.): 94.4%

B3: CiGLD: purified enzyme of GLD derived from the genus Ciborinia, produced in A. oryzae NS4 carrying the CiGLD-Atsig modified gene (protein, listed as Ciborinia camelliae)
chain: MHRFLPAFVLASLAAASQDVALTYDYVIVGAGTSGLVTAHRLSELADVTVAVIEAGESNYNNANVTNPAGYGLAFGTQIDWQYQTTVQEYGGDVTKVIRAGKSIGGTSTINGMAYTRAEDVQVDAWEALGNEGWNWANMLPYYKKSQTLQVPTEAQAALGAHYDPASNGYEGPLKVGWVNAMATDDFHTILNETYAALDVPANNDVNTGKMIGYTRYPATYDRTLNMRCDAGRAYYYPIQNRTNLHLYPNTMAQRLTWKSGASTPTAEGVEVLADGETTPYTIHASSEVIISAGALGSPLVLEHSGIGNPAILEKYNISVVVDLPTVGENLQDQTNTALGFDTSSDNVTYSAVSTYLGYPSAAQMFGSDFKTVAAEILAALPSYADKVAIASGNVTKAADLLKFFKIQYELIFSATSPVPVAELLVTPVGTTYSAEFWSLLPFSRGNIHISSATPGVAATINPNYFMLDYDMISQVRSAKYIREIFATTPLSPLVGSETTPGLDSIASAATEAEWAAWVKTAYRSNFHPVATAAMMPREIGGVVDSRLKVYGTTNVRVVDASILPMQVCGHLTSTLYAMSERAADLIKEDM
modifications: CDS (1)..(1776); sig_peptide (1)..(57)
notes: purified enzyme of GLD derived from the genus Ciborinia, produced in A. oryzae NS4 carrying the CiGLD-Atsig modified gene
Relative activity [8, 10]: 0.49% | Relative activity [8, 11]: 10% | Relative activity [8, 12]: 100% | Relative activity [8, 13]: 23% | Relative activity [8, 14]: 25% | Relative activity [8, 15]: 0.21% | Relative activity [8, 16]: 6.4% | Relative activity [8, 17]: 0.38% | Relative activity [8, 18]: 0.40% | Relative activity [8, 19]: 20%
